Results as given in patent US6432692B1, “Sensitive bioassay for detecting agonists of the aryl hydrocarbon receptor” (Wisconsin Alumni Research Foundation, priority 1999, dated 2002).

Tested on: AHR
Assay: Coimmunoprecipitation of 35S-labeled AHR with T7-tagged ARA9 or FKBP52
Type: binding
Conditions: T7-agarose coimmunoprecipitation, reticulocyte lysate AHR
Description: Bacterial Expression: The ARA9 and FKBP52 proteins tagged with the T7 peptide (PL799, PL1004, PL1005 and PL947) were expressed in BL21(DE3) bacteria (Novagen). The T7 tag is an 11 amino acid peptide, MASMTGGQQMG, that facilitates detection and purification of the recombinant protein using anti-T7 antibodies (Novagen). Saturated cultures were used to inoculate LB growth media supplemented with 0.4 mM IPTG and 100 μg/ml ampicillin. The bacteria were allowed to grow an additional 4 hours at 37° C and pelleted by centrifugation at 5000×g for 5 min. The pellet was resuspended in bind/wash buffer (4.29 mM Na2HPO4, 1.47 mM KH2PO4, 2.7 mM KCl, 0.137 M NaCl, 0.1% (v/v) Tween and 0.002% (w/v) NaN3). The resulting mixture was disrupted using four ×15 second sonic pulses on ice. Insoluble debris was removed by centrifugation at 12,000×g for 20 minutes at 4° C. The supernatant was passed through a […] filter and protein concentrations determined by the BCA protein assay (Pierce, Rockford Ill.). […] The complexes were then precipitated and analyzed by SDS-PAGE and autoradiography.
Specificity of ARA9 for AHR: The structural similarity between ARA9 and FKBP52 led us to compare the relative capacity of these two factors to bind AHR. […] The AHR-ARA9 or AHR-FKBP52 associations were determined by coimmunoprecipitation with T7-agarose.

B1: ARA9: 37 kDa Ah receptor-associated protein, immunophilin structurally similar to FKBP52 (protein, UniProt O08915 1-330, looked up)
AH receptor-interacting …: MADLIARLREDGIQKRVIQEGRGELPDFQDGTKATFHFRTLHSDNEGSVIDDSRTRGKPMELIVGKKFKLPVWETIVCTMREGEIAQFLCDIKHVVLYPLVAKSLRNIAEGKDPLEGQRHCCGIAQMHEHSSLGHADLDALQQNPQPLIFHIEMLKVESPGTYQQDPWAMTDEEKAKAVPVIHQEGNRLYREGQVKEAAAKYYDAIACLKNLQMKEQPGSPDWIQLDLQITPLLLNYCQCKLVAQEYYEVLDHCSSILNKYDDNVKAYFKRGKAHAAVWNAQEAQADFAKVLELDPALAPVVSRELRALETRIRQKDEEDKARFRGIFSH
- efficiency at precipitating AHR relative to FKBP52: approximately four times more efficient
